# From patent US20220348651A1 (Novartis, published 2022)
# T1: human ENTPD2 expressed on cells (human, UniProt Q9Y5L3 1-495)
# T1 sequence: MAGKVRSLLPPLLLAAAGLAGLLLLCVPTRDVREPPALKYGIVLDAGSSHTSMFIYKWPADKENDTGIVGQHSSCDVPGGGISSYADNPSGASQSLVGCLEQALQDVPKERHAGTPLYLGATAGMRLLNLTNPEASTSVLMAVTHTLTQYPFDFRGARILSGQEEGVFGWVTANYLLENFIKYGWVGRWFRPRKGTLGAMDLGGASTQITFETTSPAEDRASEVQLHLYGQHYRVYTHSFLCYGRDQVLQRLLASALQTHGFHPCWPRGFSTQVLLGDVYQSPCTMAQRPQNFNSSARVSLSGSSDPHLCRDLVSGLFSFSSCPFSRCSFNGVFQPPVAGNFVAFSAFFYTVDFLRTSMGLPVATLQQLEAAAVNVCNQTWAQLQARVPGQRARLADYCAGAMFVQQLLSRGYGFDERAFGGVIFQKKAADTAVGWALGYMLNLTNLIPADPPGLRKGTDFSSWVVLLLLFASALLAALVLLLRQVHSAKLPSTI
# T2: cyno ENTPD2 expressed on NIH/3T3 cells (cynomolgus macaque, UniProt Q9Y5L3 1-495 (human entry))
# T2 chain: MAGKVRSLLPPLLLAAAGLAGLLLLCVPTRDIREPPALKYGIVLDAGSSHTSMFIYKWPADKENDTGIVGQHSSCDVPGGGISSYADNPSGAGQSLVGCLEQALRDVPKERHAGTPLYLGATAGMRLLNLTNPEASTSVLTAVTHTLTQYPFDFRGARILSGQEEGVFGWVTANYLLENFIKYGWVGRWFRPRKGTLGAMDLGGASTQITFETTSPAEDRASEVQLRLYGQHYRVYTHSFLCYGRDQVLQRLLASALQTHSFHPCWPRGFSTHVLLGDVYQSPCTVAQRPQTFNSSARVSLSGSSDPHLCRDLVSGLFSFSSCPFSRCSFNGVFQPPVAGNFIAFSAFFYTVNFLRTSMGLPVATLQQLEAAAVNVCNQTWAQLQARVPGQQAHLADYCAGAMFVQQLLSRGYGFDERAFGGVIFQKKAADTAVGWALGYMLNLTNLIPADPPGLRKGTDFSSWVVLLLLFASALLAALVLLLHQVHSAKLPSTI
# T3: recombinant human ENTPD2 (residues 29-462, Y350A mutant) used in crystallographic studies (human, UniProt Q9Y5L3 29-462, N-linked glycosylation observed at Asn129, Asn294, Asn378 and Asn443)
# T3 construct: also called hENTPD2 Y350A; human ENTPD2 (Y350A mutant) ectodomain
# T3 sequence: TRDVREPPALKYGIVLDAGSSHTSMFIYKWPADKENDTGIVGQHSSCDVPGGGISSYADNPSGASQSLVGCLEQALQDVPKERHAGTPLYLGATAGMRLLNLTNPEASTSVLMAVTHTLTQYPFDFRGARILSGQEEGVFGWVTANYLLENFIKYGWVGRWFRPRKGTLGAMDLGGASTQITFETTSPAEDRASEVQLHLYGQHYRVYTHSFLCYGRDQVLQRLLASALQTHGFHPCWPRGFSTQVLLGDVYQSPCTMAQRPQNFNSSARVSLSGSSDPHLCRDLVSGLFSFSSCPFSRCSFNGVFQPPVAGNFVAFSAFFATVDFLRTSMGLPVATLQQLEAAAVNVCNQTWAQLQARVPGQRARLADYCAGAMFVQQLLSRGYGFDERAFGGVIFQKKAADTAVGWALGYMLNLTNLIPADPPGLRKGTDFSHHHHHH
# T4: mouse ENTPD2 expressed on cells (mouse, UniProt O55026 1-495)
# T4 sequence: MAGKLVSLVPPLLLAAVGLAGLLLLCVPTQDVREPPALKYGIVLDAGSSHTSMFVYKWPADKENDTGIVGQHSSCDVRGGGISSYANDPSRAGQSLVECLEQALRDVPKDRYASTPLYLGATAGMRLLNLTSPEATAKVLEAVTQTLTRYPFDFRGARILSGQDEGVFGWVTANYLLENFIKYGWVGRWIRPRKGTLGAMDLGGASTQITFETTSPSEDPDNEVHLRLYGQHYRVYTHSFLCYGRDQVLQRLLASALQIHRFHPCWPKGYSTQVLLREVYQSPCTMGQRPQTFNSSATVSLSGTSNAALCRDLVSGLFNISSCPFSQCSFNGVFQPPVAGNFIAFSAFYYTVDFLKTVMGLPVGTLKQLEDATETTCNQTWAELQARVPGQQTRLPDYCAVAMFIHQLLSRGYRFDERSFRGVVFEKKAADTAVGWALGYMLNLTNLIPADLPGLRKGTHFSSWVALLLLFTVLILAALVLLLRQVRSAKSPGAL
# Key:
# [1] = target: recombinant human ENTPD2 extracellular domain (residues 29-462) with C-terminal Avi-His6 tag (human, UniProt Q9Y5L3 29-462, biotinylated on the AviTag in the epitope binning assay); test: cell-based or functional assay
# [2] = target: T1, human ENTPD2 expressed on cells; test: cell-based or functional assay
# [3] = target: T2, cyno ENTPD2 expressed on NIH/3T3 cells; test: cell-based or functional assay
# [4] = target: T3, recombinant human ENTPD2 (residues …); test: X-ray crystal structure of the complex
# Method: Structure determination by molecular replacement was performed using the previously determined human ENTPD2 coordinates and Fab coordinates from PDB code 3QRG.
# [5] = target: T4, mouse ENTPD2 expressed on cells; test: cell-based or functional assay
Binder,"IC50, ENTPD2 Biochemical Assay at 1 uM ATP [1] [nM]","% inhibition, Human ENTPD2 NIH/3T3 Assay [2] [%]","IC50, Human ENTPD2 NIH/3T3 Assay [2] [nM]",further results
"ANTI-HUMAN ENTPD2 MAB17 (antibody, human IgG1, kappa, V domains shown) VH: EVQLQQFGAELVKPGASVKISCKASGYTFTDYNMDWVKQSHGKSLEWIGDINPKYDISTYNQQFKGKATLTVDKSSSTAYMELRSLTSEDTAVYYCARRGFFLYYGINYYYFDVWGAGTTVTVSS VL: QIVLTQSPAIMSASLGEEITLTCSASSSVSYIHWYQQKSGTSPTLLIYSTSNLASGVPSRFSGSGSGTFYSLTISSVEAEDAADYYCHQWSSYPWTFGGGTKLEIKR",0.27,98,0.6,"% inhibition, RKO Assay [2]: 96%; IC50, RKO Assay [2]: 0.5 nM; % inhibition, Cyno ENTPD2 NIH/3T3 Assay [3]: 91%; IC50, Cyno ENTPD2 NIH/3T3 Assay [3]: 1 nM"
"ANTI-HUMAN ENTPD2 MAB21 (antibody, human IgG1, kappa, V domains shown) VH: EVQLQQSGPELVKPGASVKISCKTSGYTFTEYTMHWVKQSHGKSLEWIGGINPNNGITTYNQKFKGKATLTVDKSSSTAYMDLRSLTSEGSAVYYCARRGFPIYYYGTSLYYFDYWGQGTTLTVSS VL: QIVLTQSPAIMSASLGEEITLTCSASSSVSYMHWYQQRSGTSPKLLIYTTSNLASGVPSRFSGSGSGTFYSLTISSVEAEDAADYYCHQWSSYPWTFGGGTKLEIKR",0.87,,,
"ANTI-HUMAN ENTPD2 FAB23 (Fab, V domains shown, N-terminal residue observed and modeled as pyroglutamate in the crystal structure, Fab with the variable regions of mAb17; also called anti-hENTPD2 FAb23; anti-human ENTPD2 MAB17 Fab) VH: EVQLQQFGAELVKPGASVKISCKASGYTFTDYNMDWVKQSHGKSLEWIGDINPKYDISTYNQQFKGKATLTVDKSSSTAYMELRSLTSEDTAVYYCARRGFFLYYGINYYYFDVWGAGTTVTVSS VL: QIVLTQSPAIMSASLGEEITLTCSASSSVSYIHWYQQKSGTSPTLLIYSTSNLASGVPSRFSGSGSGTFYSLTISSVEAEDAADYYCHQWSSYPWTFGGGTKLEIKR",,,,buried solvent-accessible surface [4]: ~17500 Å2
"ANTI-HUMAN ENTPD2 MAB20 (antibody, human IgG1, kappa, V domains shown) VH: EVQLQQFGAELVKPGASVKISCKASGYTFTDYNMDWVKQSHGKSLEWIGDINPNYDITSYNQKFKGKATLTVDKSSSTAYMELRSLTSEDTAVYYCARRGFFLYYGSSYYYFDVWGAGTTVTVSS VL: QIVLTQSPAIMSASLGEEITLTCSASSSVSYMHWYQQKSGTSPKLLIYSTSNLASGVPSRFSGSGSGTFYSLTISSVEAEDAADYYCHQWSSYPWTFGGGTKLEIKR",17.5,,,
"ANTI-HUMAN ENTPD2 MAB19 (antibody, human IgG1, kappa, V domains shown) VH: EVQLQQFGAELVKPGTSVKISCKASGYTFTDYNMDWVKQSHGKSLEWIGDINPNYDITTYNQRFKGKATLTVDKSSSTAYMELRSLTSEDTAVYYCARRGFFPYYGNSYYYFDVWGAGTTVTVSS VL: QIVLTQSPTIMSASLGEEITLTCSASSSVSYMHWYQQKSGTSPKLLIYSTSNLASGVPSRFSGSGSGTFYSLTISSVEAEDAADYYCHQWSNYPWTFGGGTKLEIKR",4.09,,,
"ANTI-mouse ENTPD2 MAB15 (antibody, mouse IgG2a, kappa, V domains shown) VH: QVQLVQSGAELKQPGQSVKISCKASGYTFHHYGMNWVKQAPGQGLKWMGWINTDTGNPTYADDFKGRFVFSLDTSVSTAYLQISNLKNEDTATYYCVRYGTLYSGYGFFFDSWGQGTLVTVSS VL: DIMMTQSPSSLSVSAGEKATITCKSSQSLFNSNTNKNYLNWYLQKPGQSPKLLFYYASTRHTGVPDRFIGSGSGTDFTLTITSVQDEDLADYYCQQWYSYPWTFGPGTKLEIKR",,,,ENTPD2 Functional Assay IC50 (mouse ENTPD2 NIH/3T3 cells) [5]: 5.9 nM
"ANTI-mouse ENTPD2 MAB14 (antibody, mouse IgG2a, kappa, V domains shown) VH: QVQLVQSGAELKQPGQSVKISCKASGYTFWHYGMNWVKQAPGQGLKWMGWINTDTGNPTYADDFKGRFVFSLDTSVSTAYLQISNLKNEDTATYYCVRYGTLYSGYGFFFDSWGQGTLVTVSS VL: DIMMTQSPSSLSVSAGEKATITCKSSQSLFNSNTNKNYLNWYLQKPGQSPKLLFYYASTRHTGVPDRFIGSGSGTDFTLTITSVQDEDLADYYCQQWYSYPWTFGPGTKLEIKR",,,,ENTPD2 Functional Assay IC50 (mouse ENTPD2 NIH/3T3 cells) [5]: 4.6 nM
"ANTI-HUMAN ENTPD2 MAB11 (antibody, human IgG1, kappa, V domains shown) VH: EVQLLESGGGLVQSGGSLRLSCAASGFTFSSYAMSWVRQAPGKGLEWVSVISGSGGSTYYADSVKGRFTISRDNSKNTLYLQMNSLRAEDTAVYYCARGDDYGDDYYYYGMDVWGQGTTVTVSS VL: not shown",,55,1.5,
"ANTI-HUMAN ENTPD2 MAB12 (antibody, human IgG1, kappa, V domains shown) VH: EVLLVESGGGLVQPGGSLRLSCAASGFTFNSCSMNWVRQAPGKGLEWVSYISSSSSTIYYADSVKGRFTISRDNAKNSLYLQMNSLKDEDTAVYYCARDQGNWNYDDYYNGLDVWGQGTTVTVSS VL: not shown",,68,26.6,
"ANTI-HUMAN ENTPD2 MAB16 (antibody, human IgG1, kappa, V domains shown) VH: DIQLQESGPGLVKPSQSLSLTCSVTGYSITSGYYWNWIRQFPGNKLEWMGYISYDGDNNYNPSLKNRISITRDTSKNQFFLKLSSVTTEDTATYYCAGGYYRYGLSYYYVMDYWGQGTSVTVSS VL: DTVLTQSPASLAVSLGQRATISCKASQSVDYDGNSYMNWYQQKPGQPPKLLIYAASNLESGIPARFSGSGSGTDFTLNIHPVEEEDAATYYCQQSNEDPPTFGGGTKLEIKR",77.3,30,> 133,"% inhibition, Cyno ENTPD2 NIH/3T3 Assay [3]: 5%; IC50, Cyno ENTPD2 NIH/3T3 Assay [3]: > 133 nM"
"ANTI-HUMAN ENTPD2 FAB22 (Fab, V domains shown, Fab with the CDRs of mAb16; human CH1 and kappa constant regions; also called anti-hENTPD2 FAb22) VH: EVKLEQSGPGLVKPSQSLSLTCSVTGYSITSGYYWNWIRQFPGNKLEWMSYISYDGDNNYNPSLKNRISITRDTSKNQFFLKLSSVTTEDTATYYCAGGYYRYGLSYYYVMDYWGQGTSVTVSA VL: DIKMTQSPASLAVSLGQRATISCKASQSVDYDGNSYMNWYQQKPGQPPKLLIYAASNLESGIPARFSGSGSGTDFTLNIHPVEEEDAATYYCQQSNEDPPTFGGGTKLELKR",,,,buried solvent-accessible surface [4]: ~16700 Å2
"ANTI-HUMAN ENTPD2 MAB18 (antibody, human IgG1, kappa, V domains shown) VH: DIQLQESGPGLVKPSQSLSLTCSVTGYSITSGYYWNWIRQFPGNKLEWMGYISYDGDNNYNPSLKNRISITRDTSKNQFFLKLSSVTTEDTATYYCAGGYYRYGLGSYSGSYYYVMDYWGQGTSVTVSS VL: DTVLTQSPASLAVSLGQRATISCKASQSVDYDGNSYMNWYQQKPGQPPKLLIYAASNLESGIPARFSGSGSGTDFTLNIHPVEEEDAATYYCQQSNEDPPTFGGGTKLEIKR",,88,0.4,"% inhibition, Cyno ENTPD2 NIH/3T3 Assay [3]: 68%; IC50, Cyno ENTPD2 NIH/3T3 Assay [3]: 20 nM"
